The record followed here is paper doi:10.1101/321604.

The target in the assay is mUHRF1 C-terminally tagged with GFP- and 6xHis-tag (mouse) (UniProt Q8VDF2). The experiment in a line: MST.
Sequence of UniProt Q8VDF2 (Q8VDF2 whole entry): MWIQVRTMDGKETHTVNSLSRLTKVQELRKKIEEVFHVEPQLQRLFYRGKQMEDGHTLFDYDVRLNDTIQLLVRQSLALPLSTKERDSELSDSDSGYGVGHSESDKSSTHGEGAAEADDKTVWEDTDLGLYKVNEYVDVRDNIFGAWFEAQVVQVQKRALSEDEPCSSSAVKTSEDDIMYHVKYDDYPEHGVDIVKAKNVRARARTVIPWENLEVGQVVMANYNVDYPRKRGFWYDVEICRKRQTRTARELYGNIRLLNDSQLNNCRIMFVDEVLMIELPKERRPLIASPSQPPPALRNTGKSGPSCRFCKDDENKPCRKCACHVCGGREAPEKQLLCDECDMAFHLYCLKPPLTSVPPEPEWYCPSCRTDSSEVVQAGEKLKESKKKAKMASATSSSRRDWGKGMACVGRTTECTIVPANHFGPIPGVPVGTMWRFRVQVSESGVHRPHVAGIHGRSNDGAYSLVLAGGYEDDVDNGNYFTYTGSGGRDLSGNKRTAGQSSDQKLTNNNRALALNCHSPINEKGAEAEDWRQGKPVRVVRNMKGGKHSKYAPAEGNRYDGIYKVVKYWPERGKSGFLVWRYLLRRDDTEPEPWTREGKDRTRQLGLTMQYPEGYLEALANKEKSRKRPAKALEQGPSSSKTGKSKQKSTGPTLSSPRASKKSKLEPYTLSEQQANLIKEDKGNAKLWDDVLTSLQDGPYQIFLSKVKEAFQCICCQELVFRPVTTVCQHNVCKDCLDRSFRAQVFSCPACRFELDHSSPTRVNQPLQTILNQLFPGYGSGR

For the substance “GST-mDPPA3 wild-type (from UniProt Q8QZY3 1-150) (natural protein)”, the dissociation constant Kd worked out at 440 nM.
